Experimental findings from the nanobody polyreactivity screen of Harvey et al. (2022) are described below.

The nature of this data set: yeast display, Sf9 membrane polyspecificity reagent, FACS + sequencing; frameworks hold sequencing errors. In outline: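 Galactose induction of a Saccharomyces cerevisiae BJ5465 synthetic nanobody display library ran 36–48 hours. The cells were then stained for 1 hour at 4 °C with 10% biotinylated, detergent-solubilized Sf9 membrane reagent, pulled down on streptavidin microbeads and FACS-sorted into low and high (top ~1%) gates on expression and reagent-binding fluorescence. Labels for polyreactivity follow the gate of origin.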
“QVQLVDSGGGLVQAGGRLRLSCAASGRTFRTNAMGWYRQAPGKERELVAAISRTGRTNYADSVKGRFTISRDNAKNTVYLQMNSLKPEDTAVYYCAADRVGWSGYRGDYWGQGTQVTVSS”: the “polyreactivity (PSR sort gate)” value is “high polyreactivity”. The result for “QVQLVDSGGGLVQAGGSHRLSCAASGSTFYGNLMGWYRQAPGRERELVAAISGGCSTNYADSVKGRFTISRDNEKNTVYLQLNSLKPEDTAVYYCAARGVIRVGNAARYVAGYYWGQGTQVTVSS” reads “high polyreactivity”. As to “QVQLVDSGGGLVQAGGSLLLICAASGSTIPRNAMGWYRQAPGKERELVAAITSGGSTNYADSVKGRFTISRDNAKNTVYLQMNSLKPEDTAVYYCAADEQVNTQYVVWGDYWGHGTQVTVSS”, the “polyreactivity (PSR sort gate)” value is “low polyreactivity”. In the case of “QVQLVDSGGGLVQAGGSLLLSCAASGFTFTIYAMGWNRQAPGKERELVATISGRAGRTYYADSVKGRFTISRDNAKNTVYLQMNSLKPEDTAVYYCNAGQWRYPGLYYYWGQGTQVTVSS” it was “high polyreactivity”. The result for “QVQLVDSGGGLVQAGGSLLLSCAASGHTLYRNAMGWYRQAPGKERELVAAITSRGGSTFYADSVKGRFTISRDNAKNSVYLQMNCLQPEDTAVYYCNTARGTAPAHDYWGQGTQVTVSS” reads “low polyreactivity”; that for “QVQLVDSGGGLVQAGGSLPLICADAGSTFNSYAMGRYRQAPGKKRELVAAIRWIGDSTYADSVKGRFTISRDNATNTVYLQMNSLKPVDTAVYYCAATDVSWGVDYWGQCTQVTVSS”, “low polyreactivity”; that for “QVQLVDSGGGLVQAGGSLRLICAASGLIFYKYAMGWYRQAPGKERELVASISTGGGSTYYADSVKGRFTISRDNAKNTVYLQMNSLQPEDTAVYYCAARWWRRFRGSHSLYDYWGQGTEVTVSS”, “high polyreactivity”.

Consider “QVQLVDSGGGLVQAGGSLRLRCAASGRTFTPYAMGWYRQAPGQERELVATISSGTSTNYADSVKGRFTISRDNAKNTVYLQMNSLKPEDTAVYDCAADGYTYKFDYWGQGTQVTVSS”, for which the “polyreactivity (PSR sort gate)” value is reported as “low polyreactivity”. In the case of “QVQLVDSGGGLVQAGGSLRLRCADSGSIFRDNAMGWYRQAPGKERELVADINYRDGDTFYADSVKGRFTISRDNAKNTVYLLMNSLKPEDNAVYYCAAEWDYPWWRIVAVYGYEYWGQGTQVTVSS” it was “low polyreactivity”; in that of “QVQLVDSGGGLVQAGGSLRLSAASGSTLSGNTMGWYRQAPGKERELVAAINDSGGSTYYADSVKGRFTISRDNAKNTVYLQMNSLKPEDTAVYYCAAETGYAFDYWGQGTQVTVSS”, “low polyreactivity”; in that of “QVQLVDSGGGLVQAGGSLRLSCAASGFIFGYYAMGWYRPAPGKERELVAAISQSTGSTYYADSVKGRFTISRDNAKNTVYLQMNSLKPEDTAVYYCNAEGPEFTTWGYVYWDWGYGYWGQGTQVTVSS”, “low polyreactivity”. In the case of “QVQLVDSGGGLVQAGGSLRLSCAASGFIFPYYAMGWYRQAPGKERELVAAITRGGRTYYADSVKGRFTISRDNAKNTVYLQMNSLKPEDTAVYYCAARAGLDGEMDYWGQGTQVTVSS” it was “high polyreactivity”. The result for “QVQLVDSGGGLVQAGGSLRLSCAASGFIFSAYTMGWYRQAPGKERELVAAISGSGVGTYYADSVKGRFTISRDNAKNTVYLQMNSLKPEDTAVYYCNAADYTAYYWEYYYWGQGTQVTVSS” reads “low polyreactivity”.

As to “QVQLVDSGGGLVQAGGSLRLSCAASGFKFGTYAMGWYRQAPGKERELVAGISRRSGSTIYADSVKGRFTISRDNAKNTVYLQMNSLKPEDTAVYYCNVDRPDATWSWWEYGYWGQGTQVTVSS”, the “polyreactivity (PSR sort gate)” value is “high polyreactivity”. In the case of “QVQLVDSGGGLVQAGGSLRLSCAASGFTFRYYAMGWYRKAPGNERELVAGISWSGSRTYYADSVKGRFTISRDNAKNTVYLQMNSLKPEDTAVYFCAKVNSYGPVPDRYDYWGQGTQVTVSS” it was “high polyreactivity”; in that of “QVQLVDSGGGLVQAGGSLRLSCAASGFTFYRYAMGWYRPAPGKERELVAGITGSGGNTYYADSVKGRFTISRDNAKNTVYLQMNSLKPEDTAVYYCAAEDYVGWYNFEYWGQGNQVTVSS”, “high polyreactivity”; in that of “QVQLVDSGGGLVQAGGSLRLSCAASGGTFDWYTMGWYRQAPGKERELVADITSGGSTYYADSVKGRFTISRDNAKNTVYLQMNSLKPEDTAVCYCATTVYSTSGYPYDYWGQGTQVTVSS”, “high polyreactivity”.

Take “QVQLVDSGGGLVQAGGSLRLSCAASGITFRYYAMGWYRQAPGKERELVAAITRGGRTNYADSVKGRFTISRDNAKNTVYLQKNSLKPEETAVYYCATGRDSNFGNSYYYWGQGTQVTVSS”: the “polyreactivity (PSR sort gate)” value is reported as “high polyreactivity”. The result for “QVQLVDSGGGLVQAGGSLRLSCAASGLTFSTYAKGWYRQAPGTERELVAVIRRTGSTYYADSVKGRFTISRDNAMNTVYLHMNGLKPEDNAVYYFATARRHVSGYDFWGQCTQVTVSS” reads “high polyreactivity”. For “QVQLVDSGGGLVQAGGSLRLSCAASGRIFGYNAMGWSRQAPGKERELVAAITSDARTNYADSVKGRFTISRDNAKNTVYLQMISLKPEDTAVYYCAARRYPPRMDYWGHGTQVTVSS”, the “polyreactivity (PSR sort gate)” value was “high polyreactivity”. With “QVQLVDSGGGLVQAGGSLRLSCAASGRIFPYYAMGWYRQAPGKERELVAAISSGGSTKYADSVKGRFTISRDNAKNTVYLQMNSLKPEDTAVYYCAKDPFPWALFDYWGQGTLVTVSS”, the “polyreactivity (PSR sort gate)” value is “low polyreactivity”.

Turning to “QVQLVDSGGGLVQAGGSLRLSCAASGRIFRWNAMGWYRQAPGKERELVAVISSGGSTNYADSVKGRFTISRDNAKNTVYLQMNSLKPEDTAVYYCAKGLIRYSHLDYWGQGTQVTVSS”, the “polyreactivity (PSR sort gate)” value is recorded as “low polyreactivity”. The result for “QVQLVDSGGGLVQAGGSLRLSCAASGRIFYTNAMGWYIQEPGKERELVAAIDYSDSTTYYADSVKGRFTISRDNAKNTVYLQMNSLKPEDTAVYYCAAESYLYTVTFEYWGQGTQVTVSS” reads “high polyreactivity”; that for “QVQLVDSGGGLVQAGGSLRLSCAASGRILYANAMGWYRQAPGKERELVAAIRYSDDSTYYADSVKGRFTISRDNAKNTVYLHMNSLKPEDTAVYYCNADYLRWDIWYWHGYDYWGQGTQVTVSS”, “high polyreactivity”.

As to “QVQLVDSGGGLVQAGGSLRLSCAASGRIVELYAMGGYRQAPGKEREMVAVITNGGSTYYADSVKGRFTISRDNAKNTVYLQMNSLKPEDTAFYFCNARRGYNRVGGSYGYWGQGTQVTVSS”, the “polyreactivity (PSR sort gate)” value is reported as “low polyreactivity”. In the case of “QVQLVDSGGGLVQAGGSLRLSCAASGRNFSPYTMGWYRQAPGKVREMVAAIRSGDGRTYYADSVKGRFTISRDNAKNTVYLQMNSLKQEDTAVYYCAARRGKVYVSGNGYWGQGTQVTVSS” it was “high polyreactivity”; in that of “QVQLVDSGGGLVQAGGSLRLSCAASGRTFGRYTMGWYRQAPGKERELVAAITYSGGSTYYADSVKGRFTISRDNAKNTVYLQMNSLKPEDTAVYYCAAEWVYDWYRYGYWGQGTQVTVSS”, “low polyreactivity”. The result for “QVQLVDSGGGLVQAGGSLRLSCAASGRTFGVNTMGWYRQAPGKERELVAAISWSGGRTYYADSVKGRFTISRDNAKNTVYLQMNSLKPEDTAVYYCAASWYSRASLYDYWGQGTQVTVSS” reads “high polyreactivity”. The result for “QVQLVDSGGGLVQAGGSLRLSCAASGRTFPFYAKGLSRQATGKERELVAVITWRGSNTFADSVKGRFTISRDNAKNTVFLQMNSLKPEDTAVYYCAADAWRSYGYRAYDYWGQGTQVTVSS” reads “high polyreactivity”.

Consider “QVQLVDSGGGLVQAGGSLRLSCAASGRTFRGNVMGWYRQAPGKEREFVAAITKSDGSTYYADSVKGRFTISRDNAKNTVYLQKNSLKPEDTAVYYCAARTARTGWPWFRYDYWGQGTQVTVSS”, for which the “polyreactivity (PSR sort gate)” value was “low polyreactivity”.
